# According to the RNAGym collection of RNA variant scans (doi:10.7554/elife.80360):
# B1: HDV Ribozyme (parent)
# chain: GGCCGGCAUGGUCCCAGCCUCCUCGCUGGCGCCGGCUGGGCAACAUUCCGAGGGGACCGUCCCCUCGGUAAUGGCGAAUGGGACCCA
# Variants of: B1
# Assay: self-cleavage, relative activity (ratio to wild type); higher = more cleavage; co-transcriptional
row,Variant,self-cleavage
1,G54A U79G,0.643
2,G54C,0.98
3,G54C A71C,0.608
4,G54C A71G,0.646
5,G54C A77G,0.831
6,G54C A83C,0.332
7,G54C A87G,0.936
8,G54C C58U,1.11
9,G54C C61G,1.16
10,G54C C62G,0.855
11,G54C C63A,1.02
12,G54C C64A,0.574
13,G54C G59U,1.15
14,G54C G68A,0.858
15,G54C G73U,0.205
16,G54C G74A,0.314
17,G54C G74C,0.198
18,G54C G76C,0.981
19,G54C G76U,1.11
20,G54C G80A,0.362
21,G54C U60A,1.08
22,G54C U60C,1.22
23,G54C U69G,1.07
24,G54C U72A,0.702

row,Variant,self-cleavage
1,G54C U72C,0.69
2,G54C U79C,0.482
3,G54U,0.98
4,G54U A70G,1.03
5,G54U A78C,0.158
6,G54U A83U,0.446
7,G54U C57A,0.997
8,G54U C57U,0.993
9,G54U C58A,1.07
10,G54U C58G,0.997
11,G54U C62G,1.08
12,G54U C62U,0.98
13,G54U C64A,0.486
14,G54U C64U,0.905
15,G54U C85A,0.964
16,G54U C85U,1.02
17,G54U G55A,1.01
18,G54U G67A,1.01
19,G54U G73A,0.776
20,G54U G74C,0.182
21,G54U G82A,0.277
22,G54U U60G,0.989
23,G54U U65A,0.513
24,G54U U69A,0.899

row,Variant,self-cleavage
1,G54U U69G,1.03
2,G55A A56G,0.882
3,G55A A70C,1.06
4,G55A A70U,0.831
5,G55A A83G,0.919
6,G55A C58G,0.941
7,G55A C62G,0.686
8,G55A C64A,0.95
9,G55A C64G,0.962
10,G55A C66G,0.843
11,G55A C75G,0.136
12,G55A C75U,0.208
13,G55A G67A,0.997
14,G55A G68A,0.831
15,G55A G73C,0.658
16,G55A G73U,0.457
17,G55A G74A,0.457
18,G55A G76A,1
19,G55A G76C,1.09
20,G55A G76U,0.918
21,G55A G80U,0.13
22,G55A G81A,0.535
23,G55A G82A,0.324
24,G55A G82C,0.356

row,Variant,self-cleavage
1,G55A U65A,1.06
2,G55A U65C,0.863
3,G55A U79A,0.582
4,G55A U79G,0.85
5,G55C A56G,1.15
6,G55C A70G,0.848
7,G55C A83C,0.314
8,G55C A83U,0.575
9,G55C C57G,1.14
10,G55C C58G,1.11
11,G55C C61G,0.959
12,G55C C62G,1.06
13,G55C C63G,0.888
14,G55C C64A,0.855
15,G55C C66G,1.2
16,G55C C66U,0.983
17,G55C C75A,0.148
18,G55C C75U,0.0361
19,G55C C85A,0.752
20,G55C C85U,0.923
21,G55C G59C,0.867
22,G55C G68A,0.967
23,G55C G73U,0.277
24,G55C G76A,1.18

row,Variant,self-cleavage
1,G55C G76U,1.06
2,G55C G80U,0.216
3,G55C G82C,0.277
4,G55C G82U,0.277
5,G55C U60A,1.05
6,G55C U60G,0.898
7,G55C U65A,0.88
8,G55C U65C,0.867
9,G55C U69A,0.973
10,G55C U72A,0.743
11,G55C U72G,0.449
12,G55C U79C,0.513
13,G55U A56C,0.944
14,G55U A70C,0.997
15,G55U A70G,0.867
16,G55U A71C,0.725
17,G55U A77C,0.353
18,G55U A87C,1.01
19,G55U A87G,0.984
20,G55U C58G,1.04
21,G55U C61A,1.09
22,G55U C63A,0.783
23,G55U C64A,0.94
24,G55U C84A,0.886

row,Variant,self-cleavage
1,G55U C86G,1.03
2,G55U G59C,1.02
3,G55U G67A,0.881
4,G55U G73A,0.533
5,G55U G80C,0.175
6,G55U G80U,0.21
7,G55U G81C,0.106
8,G55U G81U,0.272
9,G55U G82A,0.467
10,G55U U60C,1.11
11,G55U U60G,1.12
12,G55U U65C,0.73
13,G55U U72A,0.648
14,G55U U79G,0.591
15,A56C A77C,0.482
16,A56C A83G,1.01
17,A56C A87G,0.846
18,A56C C57A,1.22
19,A56C C57G,0.978
20,A56C C58U,1.07
21,A56C C61A,1.13
22,A56C C66A,1.21
23,A56C C84G,0.755
24,A56C C85A,0.806

row,Variant,self-cleavage
1,A56C C85G,1.04
2,A56C C85U,1.01
3,A56C C86A,0.87
4,A56C C86G,0.804
5,A56C G59C,1.05
6,A56C G67A,1.05
7,A56C G68C,0.486
8,A56C G74C,0.312
9,A56C G76A,1.17
10,A56C G76C,1.06
11,A56C G81A,0.415
12,A56C G81C,0.266
13,A56C G82A,0.684
14,A56C G82U,0.404
15,A56C U60C,0.98
16,A56C U65A,0.955
17,A56C U72G,0.383
18,A56C U79C,0.379
19,A56G A70C,0.935
20,A56G A70G,1.14
21,A56G A71G,0.918
22,A56G A71U,0.957
23,A56G A77U,0.739
24,A56G A78C,0.203

row,Variant,self-cleavage
1,A56G A78U,0.181
2,A56G C57A,0.847
3,A56G C57G,0.8
4,A56G C58G,0.911
5,A56G C61A,0.849
6,A56G C61G,1.12
7,A56G C63A,0.831
8,A56G C64G,0.791
9,A56G C66G,1.01
10,A56G C86A,0.718
11,A56G G59C,1.3
12,A56G G67U,0.997
13,A56G G68C,1.01
14,A56G G68U,1.18
15,A56G G73A,0.749
16,A56G G74U,0.564
17,A56G G76U,1.22
18,A56G G80A,0.32
19,A56G G80C,0.259
20,A56G G81U,0.332
21,A56G G82C,0.193
22,A56G U65A,0.867
23,A56G U65G,0.957
24,A56G U79G,0.65

row,Variant,self-cleavage
1,A56U A71G,0.762
2,A56U A71U,0.864
3,A56U A77C,0.341
4,A56U A78C,0.272
5,A56U A78U,0.0573
6,A56U A83G,0.876
7,A56U A87G,1.02
8,A56U C61A,0.943
9,A56U C61G,0.997
10,A56U C62G,0.601
11,A56U C66U,0.923
12,A56U C75U,0.237
13,A56U C84A,0.895
14,A56U C84G,0.697
15,A56U C85U,1.12
16,A56U G59U,1.08
17,A56U G67C,0.904
18,A56U G68C,0.872
19,A56U G74C,0.317
20,A56U G80A,0.358
21,A56U G80C,0.22
22,A56U G80U,0.237
23,A56U U60C,1.13
24,A56U U69C,0.733

row,Variant,self-cleavage
1,A56U U72A,0.764
2,C57A A71G,0.98
3,C57A A77C,0.314
4,C57A A77U,0.486
5,C57A A83C,0.684
6,C57A C61A,1.05
7,C57A C62G,0.85
8,C57A C62U,1.06
9,C57A C64U,1
10,C57A C66U,1.18
11,C57A C75G,0.0978
12,C57A C85U,1.05
13,C57A C86G,0.89
14,C57A G67U,1.06
15,C57A G68C,1.06
16,C57A G73A,0.708
17,C57A G73C,0.523
18,C57A G74C,0.108
19,C57A G76A,1.18
20,C57A G76C,1.05
21,C57A U60A,0.898
22,C57A U60C,1.01
23,C57A U69G,0.675
24,C57A U72A,0.674

row,Variant,self-cleavage
1,C57A U79A,0.806
2,C57G A77C,0.237
3,C57G A78G,0.629
4,C57G A83G,0.917
5,C57G A87U,0.861
6,C57G C58U,1.07
7,C57G C61U,0.967
8,C57G C63A,0.956
9,C57G C66A,0.923
10,C57G C66U,0.848
11,C57G G67C,0.923
12,C57G G67U,0.8
13,C57G G74C,0.446
14,C57G G80C,0.125
15,C57G G81C,0.177
16,C57G G82A,0.302
17,C57G U65G,0.85
18,C57U A70C,0.855
19,C57U A71G,1.12
20,C57U A77G,0.941
21,C57U A77U,0.648
22,C57U A78C,0.312
23,C57U A83C,0.665
24,C57U C58G,0.762

row,Variant,self-cleavage
1,C57U C61A,1.32
2,C57U C64A,0.901
3,C57U C64G,0.946
4,C57U C75A,0.095
5,C57U C75G,0.0369
6,C57U C84G,0.673
7,C57U C85G,0.984
8,C57U C86A,0.882
9,C57U G67C,1.11
10,C57U G73C,0.748
11,C57U G73U,0.338
12,C57U G74U,0.548
13,C57U G76A,1.1
14,C57U G76C,0.902
15,C57U G76U,0.906
16,C57U G80U,0.147
17,C57U U60A,1.07
18,C57U U72A,0.657
19,C57U U72C,0.566
20,C58A,1.02
21,C58A A71G,0.897
22,C58A C61G,1.03
23,C58A C61U,0.972
24,C58A C62A,1.26

row,Variant,self-cleavage
1,C58A C63A,1.04
2,C58A C63G,0.932
3,C58A C64G,1.06
4,C58A C64U,1.15
5,C58A C66U,0.917
6,C58A C85U,0.869
7,C58A G68C,1.03
8,C58A G74A,0.426
9,C58A G74U,0.554
10,C58A G80U,0.21
11,C58A G82C,0.17
12,C58A G82U,0.376
13,C58A U65A,0.9
14,C58A U79G,0.772
15,C58G,0.964
16,C58G A70G,1.03
17,C58G A70U,0.929
18,C58G A71C,0.802
19,C58G A77G,0.831
20,C58G A78C,0.102
21,C58G A87U,0.897
22,C58G C62A,0.796
23,C58G C63A,0.813
24,C58G C64A,0.855

row,Variant,self-cleavage
1,C58G C84A,0.817
2,C58G C84G,0.554
3,C58G C85G,0.95
4,C58G C85U,0.956
5,C58G C86G,0.969
6,C58G G67C,0.739
7,C58G G67U,0.892
8,C58G G68U,0.959
9,C58G G73C,0.582
10,C58G G74U,0.511
11,C58G G76U,1.11
12,C58G G80A,0.332
13,C58G G80C,0.147
14,C58G G81A,0.243
15,C58G G82U,0.534
16,C58G U60C,1.2
17,C58G U65A,0.944
18,C58G U72C,0.369
19,C58G U72G,0.447
20,C58G U79C,0.366
21,C58U,1.04
22,C58U A71C,0.85
